Our source for the Kd values is patent US6177557.

By pKd is commonly meant the Kd on a negative log10 scale, so that one unit is a factor of ten.

The target in data set [1] is basic fibroblast growth factor (bFGF) (UniProt P09038). The data set is described as follows: filter.
A further data set addresses thrombin (alpha) (human) (UniProt P00734+P00734). In words: filter.
Where [2] appears, read: bulk pool, text also says after 12 rounds, apparently unselected.

pKd: −log10 of the molar value.

basic fibroblast growth factor (bFGF), sequence (P09038 135-288): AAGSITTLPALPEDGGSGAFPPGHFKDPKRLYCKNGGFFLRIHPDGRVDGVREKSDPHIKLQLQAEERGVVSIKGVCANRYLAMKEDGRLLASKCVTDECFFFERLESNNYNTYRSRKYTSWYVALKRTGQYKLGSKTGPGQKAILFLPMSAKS

In data set [1] (PBS), “GGGAGGACGATGCGGGGGGCTATGCGATACAGTCGCGNTANGCTAGGCGCAGACGAGCGGGA [m26]” had a pKd of 8.80.

Sequence “GGGAGCUCAGAAUAAACGCUCAANNNNNNNNNNNNNNNNNNNNNNNNNNNNNNUUCGACAUGAGGCCCGGAUCCGGC [random RNA A (unmodified)]” gave a pKd in data set [1] (unselected pool, PBS, 37 C) of 6.52. “GGGAGGACGATGCGGNCAGACGACGACGGGGA [DNA SELEX pool Experiment 3 round 11]” showed a pKd in data set [1] (round 11 pool) of 8.40.

For “AGATGCCTGTCGAGCATGCTNGTAGCTAAACTGCTTTGTCGACGGG [bulk 60N DNA]”, the pKd with thrombin (alpha) (human) (setting [2]) was 5.30.

In data set [1] (round 10 pool), “GGGAGGACGATGCGGNCAGACGACGACGGGGA [DNA SELEX pool Experiment 3 round 10]” had a pKd of 8.60. In data set [1] (2'-NH2 pyrimidines, unselected pool, +/-11), “GGGAGACAAGAAUAACGCUCAANNNNNNNNNNNNNNNNNNNNNNNNNNNNNNUUCGACAGGAGGCUCACAACAGGC [2'-NH2 starting random RNA A]” showed a negative-log Kd (pKd) of 7.19. Consider “AGATGCCTGTCGAGCATGCTNGTAGCTAAACTGCTTTGTCGACGGG [30N DNA pool after SELEX]”, for which, in the data set with thrombin (alpha) (human) (pool after 12 rounds), the pKd was 8.10. In data set [1] (2'-NH2 pyrimidines, unselected pool, +/-140), “GGGAGGACGAUGCGGNNNNNNNNNNNNNNNNNNNNNNNNNNNNNNNNNNNNNNNNNNNNNNNNNNCAGACGACUCGCCCGA [2'-NH2 starting random RNA B]” showed a pKd of 6.62. Turning to “AGATGCCTGTCGAGCATGCTNGTAGCTAAACTGCTTTGTCGACGGG [bulk 30N DNA]”, the pKd with thrombin (alpha) (human) (setting [2]) was 5.10. In data set [1] (unselected pool, PBS, 37 C), “GGGAGAUGCCUGUCGAGCAUGCUGNNNNNNNNNNNNNNNNNNNNNNNNNNNNNNGUAGCUAAACAGCUUUGUCGACGGG [random RNA B (unmodified)]” gave a pKd of 6.25. In data set [1] (round 0 pool), “GGGAGGACGATGCGGNCAGACGACGACGGGGA [DNA random pool 30N7.1PS (round 0)]” had a negative logarithm of the Kd (pKd) of 6.52. Take “AGATGCCTGTCGAGCATGCTNGTAGCTAAACTGCTTTGTCGACGGG [60N DNA pool after SELEX]”: the pKd with thrombin (alpha) (human) (pool after 12 rounds) is 8.10.
